{"source": "patent US6833355", "key": {"[1]": {"biological_target": "nucleophosmin/B23 (NPM), papain-released material of Jurkat T cell membrane preparations, Mono-Q pool 85-87 (human) (UniProt P06748)", "sequence (P06748 1-147 limits assumed)": "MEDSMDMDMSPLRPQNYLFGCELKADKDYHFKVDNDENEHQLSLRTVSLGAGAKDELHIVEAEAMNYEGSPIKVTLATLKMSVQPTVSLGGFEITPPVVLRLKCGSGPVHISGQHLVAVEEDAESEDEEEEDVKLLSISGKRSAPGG", "assay": "Affinity chromatography of 125I-labelled pool 85-87 (run-through of protein A-Sepharose) on protein H-Sepharose"}, "[2]": {"biological_target": "nucleophosmin/B23 (NPM), papain-released material of Jurkat T cell membrane preparations, Mono-Q pool 85-87 (human) (UniProt P06748)", "assay": "SPR (BIACORE X), protein H over biotinylated NPM on an avidin chip; mean ± SD of three experiments"}, "[3]": {"biological_target": "nuclear proteins (mixture of Jurkat nuclear extract proteins purified on protein H-Sepharose)", "assay": "SPR (BIACORE X), protein H over immobilised nuclear proteins; mean ± SD of three experiments"}}, "data": [{"substance": "protein H of Streptococcus pyogenes, COOH-terminally truncated fragment expressed by and purified from E. coli (305 amino acids) (from UniProt P50470 42-346)", "values": [{"measurement": "percent of radioactivity bound", "setting": "[1]", "value": "> 70", "unit": "%"}, {"measurement": "Ka", "setting": "[2]", "value": "3.6e+06", "unit": "M⁻¹"}, {"measurement": "Kd", "setting": "[2]", "value": 0.286, "unit": "µM"}, {"measurement": "koff", "setting": "[2]", "value": 0.0019, "unit": "s⁻¹"}, {"measurement": "kon", "setting": "[2]", "value": 6700, "unit": "M⁻¹ s⁻¹"}, {"measurement": "Ka", "setting": "[3]", "value": "2.62e+07", "unit": "M⁻¹"}, {"measurement": "Kd", "setting": "[3]", "value": 0.044, "unit": "µM"}, {"measurement": "koff", "setting": "[3]", "value": "6.7e-05", "unit": "s⁻¹"}, {"measurement": "kon", "setting": "[3]", "value": 1700, "unit": "M⁻¹ s⁻¹"}]}]}
